Test results as given in a protein production outcome set (Wang et al. 2014).

Test: label from the status in PepcDB records

Sequence	protein production
MSLSLKIALISQNENLLNLFPKLALEKNFIPITKTASLTRASKIAFGLQDEVDAIISRGATSDYIKKSVSIPSISIKVTRFDTMRAVYNAKRFGNELALIAYKHSIVDKHEIEAMLGVKIKEFLFSSEDEITTLISKVKTENIKIVVSGKTVTDEAIKQGLYGETINSGEESLRRAIEEALNLIEVRNEGHHHHHH	not failed
MLWARLVGLARLEARALSKKERRSLLERLKPYYTRIPFSEKADLRLVKARTDSGEYEIITVDGVPCLFEWSDGRIYPTLQCLKAFGVDWLKGVVLVDKGAAIALAKGAHLMIPGVVGVEGSFTRGDVVAALYHETRTPVMVGVAEVDSSALEKLYREKARGRAVRRVHRLGDALWELAQEVGKRLS	not failed
MAVAGAVSGEPLVHWCTQQLRKTFGLDVSEEIIQYVLSIESAEEIREYVTDLLQGNEGKKGQFIEELITKWQKNDQELISDPLQQCFKKDEILDGQKSGDHLKRGRKKGRNRQEVPAFTEPDTTAEVKTPFDLAKAQENSNSVKKKTKFVNLYTREGQDRLAVLLPGRHPCDCLGQKHKLINNCLICGRIVCEQEGSGPCLFCGTLVCTHEEQDILQRDSNKSQKLLKKLMSGVENSGKVDISTKDLLPHQELRIKSGLEKAIKHKDKLLEFDRTSIRRTQVIDDESDYFASDSNQWLSKLERETLQKREEELRELRHASRLSKKVTIDFAGRKILEEENSLAEYHSRLDETIQAIANGTLNQPLTKLDRSSEEPLGVLVNPNMYQSPPQWVDHTGAASQKKAFRSSGFGLEFNSFQHQLRIQDQEFQEGFDGGWCLSVHQPWASLLVRGIKRVEGRSWYTPHRGRLWIAATAKKPSPQEVSELQATYRLLRGKDVEFPNDYPSGCLLGCVDLIDCLSQKQFKEQFPDISQESDSPFVFICKNPQEMVVKFPIKGNPKIWKLDSKIHQGAKKGLMKQNKAV	not failed
MPSGQALRISRTCRLNAHPRFDRLWRSPTPIQVSAMIVAFRLFLACLGLFLCLSSPLAAQVSLYSGIAGTSDESAGGDLAEAIRAASEAGASVIVIDSAGRVAAAGTEAGAVETARVDPMGEASQLMKAQEKVSDFIGALRSRLEALPYSIFEVQYILRQTSPDGRIATYAEVLAINLVLLLIGRWMSIEIYGKRIARKHVVSRIREAPRGYREKMPFLVFRFVMGVGATLFAMVFAFIIGFLIFGPMQDLSIQFTVTAIFTAYFLARTASDLWRMVLSPYLSQYRLPPFSDRDAKRLYLWASLLATYDISSELFSTWVADFGLNYNVYAMVYGVLTGVGALGNVLMVLFNGRAISNAIRGGRTKDEVSWILRLVSVAWAPVVLFYMVFGWLQLAFDLVLERPVHIPLMAGTYGIFMSVVVAYGAMNYLLERYFDRTRQVKELNAALAEAEAAEDLSMTGVSAQRHHIATFEDLARRVAGILAFVVGTYALVLIWNPEMDWTGDLPIDRALDVMVIIFLGYIVFHFFRIWIDSKIAEETVDVPEGELGDEGGGTSASRLATLLPLFRGAILAVVVVSIVLIALMEVGINVSPLFAGAGVVGLAVGFGSQTLVRDIFSGAFFLVDDAFRKGEYIDIGDVKGTVEKISVRSFQLRHHLGALHTIPFGEIKVLTNFSRDWVIMKLPLRVTYDTDVEKVRKLIKNLGQELLSDPVIGDNFIQPLKSQGVIEMQDSAMIIRVKFMTKPGDQWLVRKRVYQDIRELFAREGIKFAHREVTVRLADGQEAAKMTPQQREAVTGAVQAAIDEDVLDDMMDDDR	failed
MSLTNGEENEEVLFCEKAKLLIFDSDTKGYTSRGVGELKLLRKKDDKGKVRVLCRSEGMGHVLLNTSVVKSFKYQPIDADNENLIKWPIITDGKLETFIIKVKQKADGRRLVGAVADAQQAMEGHHHHHH	not failed
MIILIWMVIMRHVFRLNLWFVFLATFLFTPYLYAEPIKEPSRPKIALVLAGGGAKGAAHIGVLKALEELNIPIDIITGTSMGAYVGGLYATGKSASEIEAYLHTVDWYSGYQDEVGREEKNSRDKKYEDRFAINPSLGIRKEGVKSPKSAIQGQNMLKILRETSGNPVSVASFDDFPIRYRSVATDIVSMEEVVIDHGLLVDAMMASMSVPGALPPYEFEDKLLIDGGVTNNMPVELAKEMGADIVIAVDISSNYMTKEQIGSLFDVASQLTNFMVKRSTQEQAEFLTDKDILLQPRVGDIETTDFSSMPRAYQEGYDTVMTLKSRLQSLAVAPNEYAQYQNKIKQQSANVRLAQGAIIDKVEVENRSHYESDKLERFIQFEQGTLLSSDYIEDKIHALYATNRFETITYLVEEDNNENVLKVTAKEKEWGPNYLNFRFFLEEDFDTHSQYGLGASINFTDLNDYGAELRTNVELGTDKIFDATIHYPFYLNHHFFVQSNMMYSDKKRSISTSSLEDKEPNSSMSFYPVNLRDFTVDALFGVEATKDQQLKTGILYARGSHELTGLSAYGRTEYERLGATLEYNFDSLDSISLPTHGSLINARYLYAFDKVNSRDVEGSDHSEQYIDEFTAEALFARSIARHTFISSAEYGITNSDDYLVPVNPIELGGFNHLSGLPRNSLIGANKIYGRLTYRYRWFENDLGMFKTAVYLGASAEYGGLWSMKSTDISSAPLIFSGSLFGGIDTPIGPIILSYGRAENGLDSVYLIVGNVE	failed
MEGAEEAGAEIAVDSKDLQQQSKAFDKLTDRVEDRQLDSSRVQSAMASIAASREADLNAKRLREKELASVKINPADVEFIVNELEIEKNVAERTLREHKGDAVAATRQLLSRYPL	failed
STGNGWFAGFPIFSWYFGRDGLWMGLAANTVGMSHLTREHMRTLLIYSKDGRIPHEIGLSNDGMQSYSISDRIFNTMYMSIDSSLLWLLSNKSLENWESKGFEHDNVTRVFKFASSCDSDGDGLLENNFSDGLIGWPETWANIRNGKAVDINALWVKTVELYSNELNIANAEELKKKYLESFFSNVSFTDFIDNSGYAKSVKSAMQFVPGIFFTNNNIVETIKQLAEGNLTPWGVRSVSVDDPMFDGGYHTGTVWPLMTGWFVLSAYKNGLKDIAFKQLMTFSELAFSSPDLGRINETYDSMIANPTGQFAQGWSSSMLVLSVMQGLLGIDSIEF	failed
DDDLEVKEENGVWVLNDGNFDNFVADKDTVLLEFYAPWCGHCKQFAPEYEKIASTLKDNDPPIAVAKIDATSASMLASKFDVSGYPTIKILKKGQAVDYDGSRTQEEIVAKVREVSQPDWTPPPEVT	not failed
SDNEFPDFDYQTVYFANQYGLRTIELGESEFVDNTLDNQHKMVIKAAWGGGYTNRNNVVINFKVDESLCDNLYFKDTDQPLVPMPASYYTLASDRIAIPKGQIMAGVEVQLTDDFFADEKSISENYVIPLLMTNVQGADSILQGKPVVENPVLTNAGDWSILPQNFVLYAVKYVNPWHGEYLRRGIDHATVAGTSKDIIRHEQFVENDEVVNISTKSMKDNLLTLKTKDESGKDISYTVRLSFAEDGSCTVHSGSQNVVVSGSGKFVSKGEKNSLGGKDRNAIYLDYTVNLTDNNIQLATKDTLVLRTRNVYGGKSLEVVRK	not failed
MQNPRRICVADPNHRLSQKRFTRNSRDIFICPDCGCIMADVDFDHDQYESGDYYTMQHKTVQSIEEVWGFRWRYILDQILKINGRSSLLDVGAGNGYFVALASREFSFDASGLEISQEEVQFAADVLNIGLIREDLTQHNLDYDVVTCLNVLEHVVDPQLFLSHLVNRVKPGGLLVITTPNPACIHRKVKGLKNWNMIAPPHHINLFTKESLYILLMRYGLIQLDYQTISTYVNFVRGFDTENLLLRRLFFNLLKIFDLGADHFFIVKKPSQC	failed
MAQPKFVVAEIVEMEDHPDSDHLHICKVNVGFADPVQIVCGAPNAALGLKTVAALPGAMMPNGSLIFPGALRGVQSYGMLCSALEHHHHHH	failed
MGHHHHHHSHMASLTVKAYLLGKEDAAREIRRFSFCCSPEPEAEAEAAAGPGPCERLLSRVAALFPALRPGGFQAHYRDEDGDLVAFSSDEELTMAMSYVKDDIFRIYIKEKKECRRDHRPPCAQEAPRNMVHP	failed
MNFQENLAALDLEYLWHPCSQMQEHQNFPIIPIKKAQGIYLYDFNDNAYMDLISSWWVNLFGHNNAYISQQLKNQIDDLEHVLLASFSHKPIITLSQRLCQLTHMDKCFYADNGSSCVEIALKMSYHAHFLKNQTRRKKLFLSLSNSYHGETLGALSVGDVKLYKDTYTPLLLKNLTTPVPKNDHEIENSLNALKRLLDKHSEEICAFIAEPLLQCAGNMHIYSARYLKQAVLLCKQKNIHIIFDEIATGFGRTGSMFAYEQCEIKPDFLCLSKGISGGYLPLSALLTHNEIYNQFYAPYEENKAFLHSHSYTGNALACACANATLDIFEKENVIEKNKALSGFIFNTLQNALKPLMEQQVVSDLRHLGMVFAFEVFIQTKERLSLAVFKKTLKKGLLLRPLNNTIYLMPPYIITHEEVKKAVAGLVEILDELRKG	failed
